Here are results for 20 sequences from the supplement of paper PMC9170038.

Data set [1] deals with MS2 coat protein. As to the kind of experiment: apparent KD of MS2 coat protein, switch ON state; designed switch direction (-1 OFF switch, 1 ON switch): 1; higher = weaker reporter binding. Conditions: FMN input: 0 or 200 uM; Eterna round: R93 (includes R88 designs). The method in brief:
(§1)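 For every design, apparent KD is the median of normalised binding-curve fits from its clusters. The RNA switches were transcribed on-chip from Illumina sequencing clusters and titrated with SNAP-549-labelled MS2 coat protein (twofold steps, 0.7 or 1.5 nM to 3 µM; 0.8–1.5 h to 10–20 min per step). Titrations used 100 mM Tris-HCl pH 7.5, 80 mM KCl, 4 mM MgCl2, without or with constant ligand.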

Data set [2] has as its system MS2 coat protein. Description: apparent KD of MS2 coat protein, switch OFF state (with FMN for OFF switches, without FMN for ON switches); designed switch direction (-1 OFF switch, 1 ON switch): 1; higher = weaker reporter binding. Conditions: FMN input: 0 or 200 uM; Eterna round: R93 (includes R88 designs). A digest of the protocol:
as §1

Turning to “GAAAAACAUGAGGAUCACCCAUGUGUAAACAAGGGAGGAUAUACAAAGACGUAAGUCAAAGUAGAAGGCCUAAAAG [Garnet 38]”, the “apparent KD of MS2 coat protein” value came to 25.6 nM in data set [1] and 47.1 nM in data set [2].

“GAAAAACAUGAGGAUCACCCAUGUGUAAAUAUGGGAGGAUAUACAAAGACGGAAGUCAAAGUAGAAGGCCUAAAAG [Mat - Same State 1 - Eli mod - D11]”: the figures for the “apparent KD of MS2 coat protein” value in data set [1] and in data set [2] were 94.3 nM and 111 nM, respectively.

With “GACAAACAUGAGGAUCACCCAUGUAGACAUAUGGGAGGAUAUACACAGACGAAAGUCAAAGUAGAAGGCCUACAAG [77%, Mat - Mod of Eli - With 4 more C's]”, the “apparent KD of MS2 coat protein” value came out at 29.3 nM in data set [1] and 91.3 nM in data set [2].

For the sequence “GACAAACAUGAGGAUCACCCAUGUAGACAUAUGGGAGGAUAUACACAGACGAAAGUCACAGUAGAAGGCCUACAAG [77%, Mat - Mod of Eli - With 5 more C's]”, the “apparent KD of MS2 coat protein” value in data set [1] was determined as 26.9 nM; in data set [2] it was 82.4 nM.

Turning to “GACAGACAUGAGGAUCACCCAUGUACAAACGUACAAGGAUAUGUGUGGAAACCGUACUAUACAGAAGGUGUAUGUC [SS1 - 91]”, the “apparent KD of MS2 coat protein” value in data set [1] is 42 nM; in data set [2], 80.5 nM.

For the sequence “GACUGACAUGAGGAUCACCCAUGUAUUCAAACAUGAGGAUAUAUAACACGUCAUCGACGGAUAGAAGGCAUAGAUG [JR_SS001_Sub1209]”, the “apparent KD of MS2 coat protein” value came to 117 nM in data set [1] and 162 nM in data set [2].

For the sequence “GACUGACAUGAGGAUCACCCAUGUAUUCGAGCAUGAGGAUAUAUGACACGUCAUCGACGGAUAGAAGGCAUGGAUG [JR_SS001_Sub1211]”, the results for the “apparent KD of MS2 coat protein” value in data set [1] and in data set [2] were 232 nM and 208 nM, respectively.

As to “GAGGACAUAGGAUAGGAUAUAUGAAUAAUUACAUGAGGAUCACCCAUGUCCAUUUAUAUGGGAACAUAGAAGGGUUGUAGUUAUC [SameState2 Malc#34]”, the “apparent KD of MS2 coat protein” value in data set [1] was found to be 1070 nM; in data set [2], 683 nM.

As to “GCCUAACAUGAGGAUCACCCAUGUAGUGGGUUGUUAGGAUAUGGACCACAAAACGCGGUACCAGAAGGAAUAGAAA [Atbima]”, the “apparent KD of MS2 coat protein” value stood at 393 nM in data set [1] and 538 nM in data set [2].

Regarding “GCCUAACAUGAGGAUCACCCAUGUAGUGGGUUGUUAGGAUAUGGACCGCAAAACACGGUACCAGAAGGAAUAGAAA [Tiquleraat]”, the “apparent KD of MS2 coat protein” value stood at 448 nM in data set [1] and 720 nM in data set [2].

Take “GGAAAACAUGAGGAUCACCCAUGUUAGUGUCAUUAAGGAUAUGGGCUUAAGAAUUUGAGACUAGAAGGUGAUGCGC [Soisla]”: the results for the “apparent KD of MS2 coat protein” value in data set [1] and in data set [2] were 21.8 nM and 49.2 nM, respectively.

Take “GGAGCCGGCACCGAGGAUAUUCAUAUUAAAACAUGAGGAUCACCCAUGUAGGCCAGAAGGCCUUGGGAGAAGGCGGAUCGGCUCG [Xeonanis]”: the “apparent KD of MS2 coat protein” value in data set [1] turned out to be 29.9 nM; in data set [2], 481 nM.

On to “GGAGCCGGUACUGAGGAUAUUCAUAUUAAAACAUGAGGAUCACCCAUGUAGGCCAGAAAGCCUUGGGAGAAGGCAGAUCGGCUCG [Bienuslete]”, for which the “apparent KD of MS2 coat protein” value in data set [1] worked out at 17.8 nM; in data set [2], 126 nM.

As for “GGAGCCGGUACUGAGGAUAUUCAUAUUAAAACAUGAGGAUCACCCAUGUAGGCCAGAAGGCCUUGGGAGAAGGCAGAUCGGCUCC [Biceusra]”, the “apparent KD of MS2 coat protein” value amounted to 20.4 nM in data set [1] and 266 nM in data set [2].

Take “GGGAGACAUGAGGAUCACCCAUGUGAGAAGAGGCGAGGAUAUCGAAAGAAAGAAGAGAAACGAGAAGGCGCGAGAA [salish99-SS1-049]”: the “apparent KD of MS2 coat protein” value in data set [1] is 37 nM; in data set [2], 64.4 nM.

As to “GGGAGACAUGAGGAUCACCCAUGUGAGAAGAGGCGAGGAUAUCGAAAGAAAGAAGAGAAACGAGAAGGCGCGAGAU [salish99-SS1-053]”, the “apparent KD of MS2 coat protein” value in data set [1] came to 30.3 nM; in data set [2], 67 nM.

For the sequence “GUCCAACAUGAGGAUCACCCAUGUGCAUGACACUGAGGAUAUGGGACUAAAGGUGCUGGACCAGAAGGCAGAAGAA [Diatquorbi]”, the “apparent KD of MS2 coat protein” value in data set [1] was found to be 48.3 nM; in data set [2], 94.9 nM.

For the sequence “GUGGCGCAGGUACAGGAUAUGUUUCUCGUAACAUGAGGAUCACCCAUGUACCUAUGAGAUUAAAUGCAGAAGGGUGCACGCCACG [Inedor]”, the figures for the “apparent KD of MS2 coat protein” value in data set [1] and in data set [2] were 41.1 nM and 154 nM, respectively.

With “GUGGUGCAGGUACAGGAUAUGUUGCUCGUAACAUGAGGAUCACCCAUGUACCUAUGAGAUUAAAUGCAGAAGGGUGCACACCACG [Edtiditele]”, the “apparent KD of MS2 coat protein” value in data set [1] turned out to be 28.4 nM; in data set [2], 208 nM.

For the sequence “UAAAAACAUGAGGAUCACCCAUGUGAAAAUAUGGGAGGAUAUACAAAGACGAGAGUCAAAGUAGAAGGCCUAAAAU [Mat - Same State 1 - Eli mod - D88]”, the “apparent KD of MS2 coat protein” value in data set [1] is 15.7 nM; in data set [2], 115 nM.
